Laboratory results as given in the DeepSol protein solubility set.

Assay: soluble on expression in E. coli; label from the status in PepcDB or PDB records
With “MASMTGGQQMGRGSMQNPSVTISVNANAGRHPINPAVYGLAYATTATLADLNVPLHRYGGNNTSRYNWQLNADNRGADWYFESIGEASSVAGERGDTFIANSQAAGAQAMITIPTIGWVARLGANRSKLASFSIAKYGAQSGNDWQWFPDAGNGVLTSGQNVTGNNPNDANTLVDSTFQQGWAQHLVSQWGTAAGGGLRYYILDNEPSIWFSTHRDVHPVGPTMDEIRDKMLDYGAKIKTVDPSALIVGPEEWGWSGYTLSGYDQQYGGLHGWSFMPDRNNHGGWDYLPWLLDQLRQNNLSTGRRLLDVFSVHYYPQGGEFGNDTSSAMQLRRNRSTRSLWDPNYIDETWINDKVQLIPRLKNWVSTYYPGTLTAITEYNWGAESHINGATTQADILGIFGREGLDMAARWTTPDTATPTYKAIKMYRNYDGNKSAFGDTSVTATAPNPDNVSAFAAVRSSDGALTVMVINKYLSGNTPATINLSNFTAQAQAQVWQLTAANTINHLSNVSLSGSSLSLTLPAQSVTLLVIPAST” the “soluble on expression in E. coli” value was “soluble”. For “MASVAAARAVPVGSGLRGLQRTLPLVVILGATGTGKSTLALQLGQRLGGEIVSADSMQVYEGLDIITNKVSAQEQRICRHHMISFVDPLVTNYTVVDFRNRATALIEDIFARDKIPIVVGGTNYYIESLLWKVLVNTKPQEMGTEKVIDRKVELEKEDGLVLHKRLSQVDPEMAAKLHPHDKRKVARSLQVFEETGISHSEFLHRQHTEEGGGPLGGPLKFSNPCILWLHADQAVLDERLDKRVDDMLAAGLLEELRDFHRRYNQKNVSENSQDYQHGIFQSIGFKEFHEYLITEGKCTLETSNQLLKKGIEALKQVTKRYARKQNRWVKNRFLSRPGPIVPPVYGLEVSDVSKWEESVLEPALEIVQSFIQGHKPTATPIKMPYNEAENKRSYHLCDLCDRIIIGDREWAAHIKSKSHLNQLKKRRRLDSDAVNTIESQSVSPDHNKEPKEKGSPGQNDQELKCSV”, the “soluble on expression in E. coli” value was “soluble”. For “MASYKGLIVDVNGRSHENNLAHRTREIDRERLIVRRGQPFSITLQCSDSLPPKHHLELVLHLGKRDEVVIKVQKEHGARDKWWFNQQGAQDEILLTLHSPANAVIGHYRLAVLVMSPDGHIVERADKISFHMLFNPWCRDDMVYLPDESKLQEYVMNEDGVIYMGTWDYIRSIPWNYGQFEDYVMDICFEVLDNSPAALKNSEMDIEHRSDPVYVGRTITAMVNSNGDRGVLTGRWEEPYTDGVAPYRWTGSVPILQQWSKAGVRPVKYGQCWVFAAVACTVLRCLGIPTRPITNFASAHDVDGNLSVDFLLNERLESLDSRQRSDSSWNFHCWVESWMSREDLPEGNDGWQVLDPTPQELSDGEFCCGPCPVAAIKEGNLGVKYDAPFVFAEVNADTIYWIVQKDGQRRKITEDHASVGKNISTKSVYGNHREDVTLHYKYPEGSQKEREVYKKAGRRVTEPSNEIAEQGRLQLSIKHAQPVFGTDFDVIVEVKNEGGRDAHAQLTMLAMAVTYNSLRRGECQRKTISVTVPAHKAHKEVMRLHYDDYVRCVSEHHLIRVKALLDAPGENGPIMTVANIPLSTPELLVQVPGKAVVWEPLTAYVSFTNPLPVPLKGGVFTLEGAGLLSATQIHVNGAVAPSGKVSVKLSFSPMRTGVRKLLVDFDSDRLKDVKGVTTVVVHKKYRSLITGLHTD”, the “soluble on expression in E. coli” value was “soluble”. With “MATAEVLNIGKKLYEGKTKEVYELLDSPGKVLLQSKDQITAGNAARKNHLEGKAAISNKITSCIFQLLQEAGIKTAFTRKCGETAFIAPQCEMIPIEWVCRRIATGSFLKRNPGVKEGYKFYPPKVELFFKDDANNDPQWSEEQLIAAKFCFAGLLIGQTEVDIMSHATQAIFEILEKSWLPQNCTLVDMKIEFGVDVTTKEIVLADVIDNDSWRLWPSGDRSQQKDKQSYRDLKEVTPEGLQMVKKNFEWVAERVELLLKSESQCRVVVLMGSTSDLGHCEKIKKACGNFGIPCELRVTSAHKGPDETLRIKAEYEGDGIPTVFVAVAGRSNGLGPVMSGNTAYPVISCPPLTPDWGVQDVWSSLRLPSGLGCSTVLSPEGSAQFAAQIFGLSNHLVWSKLRASILNTWISLKQADKKIRECNL” the “soluble on expression in E. coli” value was “soluble”. For “MATANEHLVAWLRDAHAMEEQAITMLTSQSSRLENYPELKTRIDRHLQETKDQAAMLERCLERLDGGTSSIKDISGKIVAFGQGLSGLFVSDEVVKGTLASYTFEHMEIASYRILIAAAEQAGDQETKRVCESILQQEIAMAEWLAQNAGEITRKFLERDQRDVTAKH”, the “soluble on expression in E. coli” value was “not soluble”. For “MATDRENLLSDDYEETAAFCGCGYFRSFSFTRWRRGDDESRSRGGWSGCLQEERRGNWGSEKLKGLKEISEKIAGPKWKNFIRSFSSGRKKMRRDVDFTYDLKNYSLNFDDGGDGKDSSPERFVAPVVIKV”, the “soluble on expression in E. coli” value was “not soluble”. With “MATEGMILTNHDHQIRVGVLTVSDSCFRNLAEDRSGINLKDLVQDPSLLGGTISAYKIVPDEIEEIKETLIDWCDEKELNLILTTGGTGFAPRDVTPEATKEVIEREAPGMALAMLMGSLNVTPLGMLSRPVCGIRGKTLIINLPGSKKGSQECFQFILPALPHAIDLLRDAIVKVKEVHDRSHHHHHH” the “soluble on expression in E. coli” value was “soluble”. With “MATFKDFRNSVKPNWCPGCGDFSVQAAIQRAAANVGLNPDELAVISGIGCSGRISGYINSYGVHSIHGRALPIAQGVKMANRDLTVIASGGDGDGFAIGMGHTIHSIRRNIDITYIVMDNQIYGLTKGQTSPRSEAGFKTKSTPQGSIEPSLNVMEMALTAGATFVAQSFSSDLKELTQIIEAGINHKGFSLINVFSPCVTYNKVNTYDWFKENLTKLSTVEGYDPSNRMMAMQTLMENNGLVTGLIYQNTKQPSYQELVKGYSEEPLVKSDLNMDQKMFDELVAEFM” the “soluble on expression in E. coli” value was “not soluble”. For “MATFVRNAWYVAALPEELSEKPLGRTILDTPLALYRQPDGVVAALLDICPHRFAPLSDGILVNGHLQCPYHGLEFDGGGQCVHNPHGNGARPASLNVRSFPVVERDALIWIWPGDPALADPGAIPDFGCRVDPAYRTVGGYGHVDCNYKLLVDNLMDLGHAQYVHRANAQTDAFDRLEREVIVGDGEIQALMKIPGGTPSVLMAKFLRGANTPVDAWNDIRWNKVSAMLNFIAVAPEGTPKEQSIHSRGTHILTPETEASCHYFFGSSRNFGIDDPEMDGVLRSWQAQALVKEDKVVVEAIERRRAYVEANGIRPAMLSCDEAAVRVSREIEKLEQLEAARLEHHHHHH”, the “soluble on expression in E. coli” value was “soluble”. With “MATGSGSLIWFRKGLRVHDNPALEYASKGSEFMYPVFVIDPHYMESDPSAFSPGSSRAGVNRIRFLLESLKDLDSSLKKLGSRLLVFKGEPGEVLVRCLQEWKVKRLCFEYDTDPYYQALDVKVKDYASSTGVEVFSPVSHTLFNPAHIIEKNGGKPPLSYQSFLKVAGEPSCAKSELVMSYSSLPPIGDIGNLGISEVPSLEELGYKDDEQADWTPFRGGESEALKRLTKSISDKAWVANFEKPKGDPSAFLKPATTVMSPYLKFGCLSSRYFYQCLQNIYKDVKKHTSPPVSLLGQLLWREFFYTTAFGTPNFDKMKGNRICKQIPWNEDHAMLAAWRDGKTGYPWIDAIMVQLLKWGWMHHLARHCVACFLTRGDLFIHWEQGRDVFERLLIDSDWAINNGNWMWLSCSSFFYQFNRIYSPISFGKKYDPDGKYIRHFLPVLKDMPKQYIYEPWTAPLSVQTKANCIVGKDYPKPMVLHDSASKECKRKMGEAYALNKKMDGKVDEENLRDLRRKLQKDEHEESKIRNQRPKLK” the “soluble on expression in E. coli” value was “soluble”. In the case of “MATIIPTAWQPFKSETPLTTFPFRFPAEWEPQSAILIAWPHANTDWSAHLADVEETYIALVAAITRFQMVIICVLDDDLQTYTEARLRSASVAMQQVRFTVASYNDTWLRDSGPITLIGTNRDFRLLDFRFTGWGGKFEAKADDQLVSVLHANGLFKNTQMHSINFALEGGAIETDGAGTLLTTWRCLHERHPQRTRKTLDANLTAWLAQNRVLWLEHGYLEGDDTDAHIDTLARFASTDSIVYQSCDNTTDSHYAELQAMANELTALRTTEGRAYRLFPLPWTKPILDQDRRLPASYANFLIIEGAVLMPTYDDPADTIAQSVLAEAFP”, the “soluble on expression in E. coli” value is reported as “not soluble”. For “MATLYDVPPEELIEALTETLADEDDIEAPDWAEFTKTGVDRELPPEQEDFWTRRAASLLRKVAVDGPVGVNALRSEYGTSKQGTTRYRVRPHQKTKGSGNIIRTALQQLEDAGYVETSENDGRRVTGDGRSLLDDTAGDLLTELDRPELERYALEHHHHHH”, the “soluble on expression in E. coli” value was “soluble”. In the case of “MATNIGMMDSAYFVGRNEILTWINDRLHLNLSRVEEAASGAVQCQMLDMTFPGVVPMHKLVDLKISTDLLEKERDFYFSKLRDVEILCQTPELDDLPVNVSVEPIVVAVKKILYATDANESALEDAQEYLNQSLGVEDDEAEGNGEQLEEEKTQA”, the “soluble on expression in E. coli” value is reported as “soluble”.
